Assay results taken from patent US20240358849A1 (SUZHOU FUSE BIOSCIENCES, published 2024).

T1: IL-2hex, mutant human IL-2 (deltaA1/T3A/F42A/Y45A/L72G/C125S) (human, UniProt P60568 22-153)
T1 chain: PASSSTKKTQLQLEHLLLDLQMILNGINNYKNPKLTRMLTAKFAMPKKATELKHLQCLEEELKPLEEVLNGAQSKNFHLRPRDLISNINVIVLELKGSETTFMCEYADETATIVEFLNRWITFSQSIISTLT


How the values were obtained:
[1] = target: T1, IL-2hex, mutant human IL-2 …; assay: Affinity (nM), Table 13B
[2] = target: T1, IL-2hex, mutant human IL-2 …; assay: cell-based or functional assay
[3] = target: human FAP expressed on cells (HEK 293T-hFAP-E5; ExpiCHO-hFAP) (human, UniProt Q12884 1-760); assay: cell-based or functional assay
[4] = target: T1, IL-2hex, mutant human IL-2 …; assay: BLI per 6.1.3; column head IL-2 KD
[5] = target: T2, human Fibroblast Activation Protein (FAP), soluble antigen (human, UniProt Q12884 26-760, biotinylated when immobilized on streptavidin sensors); assay: Affinity (nM), Table 13B
T2 construct: also called hFAP; biotinylated FAP

[6] = target: T2, human Fibroblast Activation Protein …; assay: BLI per 6.1.3
[7] = target: T2, human Fibroblast Activation Protein …; assay: BLI per 6.1.3, human FAP;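 note: biolayer interferometry with immobilized antigen on sensors, antibody association up to 240 s then dissociation up to 420 s, reference-subtracted, global 1:1 fit with unlinked Rmax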

Binder | Kd [1] [nM] | EC50 of HEK-Blue IL2 assay (pM) with HEK 293T; variant as masking moiety of a configuration 3 immunoconjugate [2] [pM] | EC50 of HEK-Blue IL2 assay (pM) with HEK 293T-hFAP-E5; variant as masking moiety of a configuration 3 immunoconjugate [3] [pM] | Kd [4] [nM] | Kd [5] [nM] | Kd [6] [nM] | Kd [7] [nM] | koff [7] [s⁻¹] | kon [7] [M⁻¹ s⁻¹]
anti-IL-2/anti-FAP two-in-one antibody D029 (bispecific antibody, V domains shown) VH: EVQLVESGGGLVQPGGSLRLSCAASGFTFTWSFMSWVRQAPGKGLEWVSWIGPSGSYTDYADSVKGRFTISRDNSKNTLYLQMNSLRAEDTAVYYCARSQYGRYYSPDYYFDYWGQGTLVTVSS VL: DIQMTQSPSSLSASVGDRVTITCRASQDGGNYLNWYQQKPGKAPKLLIYGASTLYSGVPSRFSGSGSGTDFTLTISSLQPEDFATYYCQQGRTPPLTFGQGTKVEIKR | 431 | 1510 | 56 | 431 | – | – | – | – | –
D029HV4LV2 (bispecific antibody, V domains shown, also called Rev1-Q27G/P94Y/L96F:H1V9) VH: EVQLVESGGGLVQPGGSLRLSCAASGFTFSRFFMSWVRQAPGKGLEWVSWIGPSGLYTDYADSVKGRFTISRDNSKNTLYLQMNSLRAEDTAVYYCARSQYGRYYSPDYYFDYWGQGTLVTVSS VL: DIQMTQSPSSLSASVGDRVTITCRASGALGFYLNWYQQKPGKAPKLLIYAASSLSSGVPSRFSGSGSGTDFTLTISSLQPEDFATYYCQQGRTYPFTFGQGTKVEIKR | 4500 | 6100 | 40 | – | 0.51 | – | – | – | –
D029 HV3LV1 (bispecific antibody, V domains shown, also called D029L-Rev1/S55L:T30R:S32F; Rev1/S55L:T30R:S32F) VH: EVQLVESGGGLVQPGGSLRLSCAASGFTFRWFFMSWVRQAPGKGLEWVSWIGPSGLYTDYADSVKGRFTISRDNSKNTLYLQMNSLRAEDTAVYYCARSQYGRYYSPDYYFDYWGQGTLVTVSS VL: DIQMTQSPSSLSASVGDRVTITCRASQALGFYLNWYQQKPGKAPKLLIYAASSLSSGVPSRFSGSGSGTDFTLTISSLQPEDFATYYCQQGRTPPLTFGQGTKVEIKR | 237 | 7380 | 35 | 427 | – | 1.79 | – | – | –
D029HV6LV2 (bispecific antibody, V domains shown, also called Rev1-Q27G:P94Y:L96F/S55L:S32A) VH: EVQLVESGGGLVQPGGSLRLSCAASGFTFTWAFMSWVRQAPGKGLEWVSWIGPSGLYTDYADSVKGRFTISRDNSKNTLYLQMNSLRAEDTAVYYCARSQYGRYYSPDYYFDYWGQGTLVTVSS VL: DIQMTQSPSSLSASVGDRVTITCRASGALGFYLNWYQQKPGKAPKLLIYAASSLSSGVPSRFSGSGSGTDFTLTISSLQPEDFATYYCQQGRTYPFTFGQGTKVEIKR | 199 | 4820 | 145 | – | 62 | – | – | – | –
872-5 VH Q96L (antibody, V domains shown) VH: EVQLVESGGGLVQPGGSLRLSCAASGFTFRGYIMSWVRQAPGKGLEWVSWISPEGSRTGYADSVKGRFTISRDNSKNTLYLQMNSLRAEDTAVYYCARLLYGTWFDYWGQGTLVTVSS VL: DIQMTQSPSSLSASVGDRVTITCRASQSISSYLNWYQQKPGKAPKLLIYAASSLQSGVPSRFSGSGSGTDFTLTISSLQPEDFATYYCQQATLLLPTFGQGTKVEIKR | – | – | – | – | – | – | 1.5 | 0.000794 | 542000
872-5 VH S52G (antibody, V domains shown, BLI per 6.1.3) VH: EVQLVESGGGLVQPGGSLRLSCAASGFTFRGYIMSWVRQAPGKGLEWVSWIGPEGSRTGYADSVKGRFTISRDNSKNTLYLQMNSLRAEDTAVYYCARLQYGTWFDYWGQGTLVTVSS VL: DIQMTQSPSSLSASVGDRVTITCRASQSISSYLNWYQQKPGKAPKLLIYAASSLQSGVPSRFSGSGSGTDFTLTISSLQPEDFATYYCQQATLLLPTFGQGTKVEIKR | – | – | – | – | – | – | 2.2 | 0.00138 | 642000
872-5 VH Q96L:VL A91G/T92R (antibody, V domains shown, BLI per 6.1.3) VH: EVQLVESGGGLVQPGGSLRLSCAASGFTFRGYIMSWVRQAPGKGLEWVSWISPEGSRTGYADSVKGRFTISRDNSKNTLYLQMNSLRAEDTAVYYCARLLYGTWFDYWGQGTLVTVSS VL: DIQMTQSPSSLSASVGDRVTITCRASQSISSYLNWYQQKPGKAPKLLIYAASSLQSGVPSRFSGSGSGTDFTLTISSLQPEDFATYYCQQGRLLLPTFGQGTKVEIKR | – | – | – | – | – | – | 0.707 | 0.000571 | 812000
872-5 VH S52G/Q96L (antibody, V domains shown, BLI per 6.1.3) VH: EVQLVESGGGLVQPGGSLRLSCAASGFTFRGYIMSWVRQAPGKGLEWVSWIGPEGSRTGYADSVKGRFTISRDNSKNTLYLQMNSLRAEDTAVYYCARLLYGTWFDYWGQGTLVTVSS VL: DIQMTQSPSSLSASVGDRVTITCRASQSISSYLNWYQQKPGKAPKLLIYAASSLQSGVPSRFSGSGSGTDFTLTISSLQPEDFATYYCQQATLLLPTFGQGTKVEIKR | – | – | – | – | – | – | 0.251 | 0.000161 | 645000

The remaining lines, values ahead:

Kd [1] [nM] | EC50 of HEK-Blue IL2 assay (pM) with HEK 293T; variant as masking moiety of a configuration 3 immunoconjugate [2] [pM] | EC50 of HEK-Blue IL2 assay (pM) with HEK 293T-hFAP-E5; variant as masking moiety of a configuration 3 immunoconjugate [3] [pM] | Kd [4] [nM] | Kd [5] [nM] | Kd [6] [nM] | Kd [7] [nM] | koff [7] [s⁻¹] | kon [7] [M⁻¹ s⁻¹] | Binder
700 | 14800 | 117 | – | 10 | – | – | – | – | Rev1-Q27G/P94Y/L96F:H1V10 (bispecific antibody, V domains shown, H1V10 = D029 VH with T30S:W31R:S55L; also called H1V10 with D029LV2) VH: EVQLVESGGGLVQPGGSLRLSCAASGFTFSRSFMSWVRQAPGKGLEWVSWIGPSGLYTDYADSVKGRFTISRDNSKNTLYLQMNSLRAEDTAVYYCARSQYGRYYSPDYYFDYWGQGTLVTVSS VL: DIQMTQSPSSLSASVGDRVTITCRASGALGFYLNWYQQKPGKAPKLLIYAASSLSSGVPSRFSGSGSGTDFTLTISSLQPEDFATYYCQQGRTYPFTFGQGTKVEIKR
600 | 9370 | 57 | – | 0.51 | – | – | – | – | Rev1-Q27G/P94Y/L96F:H1V11 (bispecific antibody, V domains shown, H1V11 = D029 VH with W31Y:S32F:S55L; also called H1V11 with D029LV2) VH: EVQLVESGGGLVQPGGSLRLSCAASGFTFTYFFMSWVRQAPGKGLEWVSWIGPSGLYTDYADSVKGRFTISRDNSKNTLYLQMNSLRAEDTAVYYCARSQYGRYYSPDYYFDYWGQGTLVTVSS VL: DIQMTQSPSSLSASVGDRVTITCRASGALGFYLNWYQQKPGKAPKLLIYAASSLSSGVPSRFSGSGSGTDFTLTISSLQPEDFATYYCQQGRTYPFTFGQGTKVEIKR
– | – | – | – | – | – | 2.2 | 0.00148 | 673000 | 872-5 VH S52G:VL A91G/T92R (antibody, V domains shown, BLI per 6.1.3) VH: EVQLVESGGGLVQPGGSLRLSCAASGFTFRGYIMSWVRQAPGKGLEWVSWIGPEGSRTGYADSVKGRFTISRDNSKNTLYLQMNSLRAEDTAVYYCARLQYGTWFDYWGQGTLVTVSS VL: DIQMTQSPSSLSASVGDRVTITCRASQSISSYLNWYQQKPGKAPKLLIYAASSLQSGVPSRFSGSGSGTDFTLTISSLQPEDFATYYCQQGRLLLPTFGQGTKVEIK
– | – | – | – | – | – | 1.6 | 0.001 | 614000 | 872-5 VL T92R (antibody, V domains shown, BLI per 6.1.3) VH: EVQLVESGGGLVQPGGSLRLSCAASGFTFRGYIMSWVRQAPGKGLEWVSWISPEGSRTGYADSVKGRFTISRDNSKNTLYLQMNSLRAEDTAVYYCARLQYGTWFDYWGQGTLVTVSS VL: DIQMTQSPSSLSASVGDRVTITCRASQSISSYLNWYQQKPGKAPKLLIYAASSLQSGVPSRFSGSGSGTDFTLTISSLQPEDFATYYCQQARLLLPTFGQGTKVEIKR
– | – | – | – | – | – | 0.78 | 0.00102 | 1.3e+06 | 872-5 VL A91G (antibody, V domains shown, BLI per 6.1.3 (monovalent Fab-Fc)) VH: EVQLVESGGGLVQPGGSLRLSCAASGFTFRGYIMSWVRQAPGKGLEWVSWISPEGSRTGYADSVKGRFTISRDNSKNTLYLQMNSLRAEDTAVYYCARLQYGTWFDYWGQGTLVTVSS VL: DIQMTQSPSSLSASVGDRVTITCRASQSISSYLNWYQQKPGKAPKLLIYAASSLQSGVPSRFSGSGSGTDFTLTISSLQPEDFATYYCQQGTLLLPTFGQGTKVEIKR
– | – | – | – | – | – | 0.398 | 0.000411 | 1.03e+06 | 872-5 VL A91G/T92R (antibody, V domains shown, BLI per 6.1.3) VH: EVQLVESGGGLVQPGGSLRLSCAASGFTFRGYIMSWVRQAPGKGLEWVSWISPEGSRTGYADSVKGRFTISRDNSKNTLYLQMNSLRAEDTAVYYCARLQYGTWFDYWGQGTLVTVSS VL: DIQMTQSPSSLSASVGDRVTITCRASQSISSYLNWYQQKPGKAPKLLIYAASSLQSGVPSRFSGSGSGTDFTLTISSLQPEDFATYYCQQGRLLLPTFGQGTKVEIKR
– | – | – | – | – | – | 0.241 | 0.000178 | 737000 | 872-5 VH S52G/Q96L:VL A91G/T92R (antibody, V domains shown, BLI per 6.1.3) VH: EVQLVESGGGLVQPGGSLRLSCAASGFTFRGYIMSWVRQAPGKGLEWVSWIGPEGSRTGYADSVKGRFTISRDNSKNTLYLQMNSLRAEDTAVYYCARLLYGTWFDYWGQGTLVTVSS VL: DIQMTQSPSSLSASVGDRVTITCRASQSISSYLNWYQQKPGKAPKLLIYAASSLQSGVPSRFSGSGSGTDFTLTISSLQPEDFATYYCQQGRLLLPTFGQGTKVEIKR
– | – | – | – | – | – | 0.087 | 7.61e-05 | 878000 | 872-5 VH S52G/Q96L/VL T92R (antibody, V domains shown, BLI per 6.1.3) VH: EVQLVESGGGLVQPGGSLRLSCAASGFTFRGYIMSWVRQAPGKGLEWVSWIGPEGSRTGYADSVKGRFTISRDNSKNTLYLQMNSLRAEDTAVYYCARLLYGTWFDYWGQGTLVTVSS VL: DIQMTQSPSSLSASVGDRVTITCRASQSISSYLNWYQQKPGKAPKLLIYAASSLQSGVPSRFSGSGSGTDFTLTISSLQPEDFATYYCQQARLLLPTFGQGTKVEIKR
